In the supplement of paper PMC9732359:
± gives the uncertainty stated by the source.

Assay: protein stability index of a GFP-peptide fusion (yeast GPS) (PSI 1-4); higher = more stable; sorted into four equal gates, so the index is relative within each strain
Method in brief: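 Tiled 17-residue yeast protein peptides were fused downstream of GFP in a plasmid that also expresses Cherry, and the pooled library was carried in yeast. Mid-log cultures in leucine-free medium were sorted into four equal gates by GFP/Cherry fluorescence ratio, and plasmids from each gate were PCR-amplified and Illumina-sequenced, with reads assigned to strains by barcodes. The protein stability index for each peptide was each gate's read frequency times its gate number, summed.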

| Sequence | protein stability index (doa10∆) | protein stability index (pdr5∆) | protein stability index (san1∆) | protein stability index (ubr1∆) |
| --- | --- | --- | --- | --- |
| DDISRQVARTNLDGTKA [ROX3] | 3.12 ± 0.096 | 2.88 ± 0.091 | 3.09 ± 0.087 | 3.11 ± 0.071 |
| NVRSSVLQKVIEWAEHH [SKP1] | 2.4 ± 0.096 | 2.91 ± 0.11 | 2.4 ± 0.085 | 2.03 ± 0.099 |
| FDNFLTEEELQAAVPDN [BRN1] | 2.93 ± 0.071 | 2.71 ± 0.071 | 2.54 ± 0.068 | 2.65 ± 0.051 |
| SELFDEWFEQNNSEQDQ [ISW2] | 2.49 ± 0.067 | 2.54 ± 0.071 | 1.44 ± 0.14 | 1.95 ± 0.051 |
| ADVFRRCLVAVIQQDKY [SRP72] | 1.6 ± 0.11 | 2.17 ± 0.066 | 1.86 ± 0.1 | 2.74 ± 0.18 |
| KWAGIKTRKFVFNPPKP [CYT1] | 3.04 ± 0.16 | 2.98 ± 0.24 | 3.05 ± 0.17 | 2.95 ± 0.15 |
| GEITFDGIGGLTEQIRE [RPT4] | 3.34 ± 0.12 | 3.45 ± 0.099 | 3.21 ± 0.093 | 3.54 ± 0.062 |
| LDYQIGNSESKVEKGVN [LIN1] | 3.12 ± 0.12 | 3.4 ± 0.18 | 2.92 ± 0.15 | 3.38 ± 0.13 |
| TSIEKSSEILSYLSNSL [YML103C/NUP188] | 2.21 ± 0.072 | 2.57 ± 0.076 | 1.49 ± 0.1 | 2.14 ± 0.046 |
| DSFIEKIIPKDISATQL [ITC1] | 2.96 ± 0.1 | 3.17 ± 0.12 | 3.07 ± 0.086 | 3.13 ± 0.085 |
| PDISRAVINIRDDGKRE [RPO31] | 2.78 ± 0.083 | 2.29 ± 0.07 | 2.74 ± 0.11 | 2.77 ± 0.063 |
| FGAKSDEKKDSDSSKPA [YJL041W/NSP1] | 3.04 ± 0.074 | 3.21 ± 0.099 | 3.24 ± 0.07 | 3.04 ± 0.086 |
| EGIEIYDRKKLPRKEVD [RPC11] | 3.14 ± 0.14 | 2.98 ± 0.097 | 1.91 ± 0.14 | 3.3 ± 0.17 |
| LKSTKHSISEAENMLEE [SMC4] | 3.06 ± 0.081 | 2.87 ± 0.12 | 3.06 ± 0.077 | 3.11 ± 0.05 |
| KSMELFYDIRSLLERHI [YJL039C/NUP192] | 2.84 ± 0.044 | 2.99 ± 0.038 | 2.91 ± 0.04 | 3.07 ± 0.046 |
| FTQPALTLMEKAAFEDL [FAS1] | 2.74 ± 0.1 | 2.33 ± 0.078 | 2.77 ± 0.091 | 2.9 ± 0.07 |
| KASTISRGAVSGQKAGL [RPL2A] | 2.46 ± 0.044 | 2.36 ± 0.055 | 2.67 ± 0.055 | 2.87 ± 0.046 |
| AGGQRIVDDYWESLAKK [SWP82] | 1.84 ± 0.19 | 2.42 ± 0.092 | 2.45 ± 0.13 | 2.39 ± 0.15 |
| LLDRILPKLKATGHRVL [SNF2] | 2.57 ± 0.1 | 2.54 ± 0.08 | 2.3 ± 0.08 | 2.63 ± 0.088 |
| TQRIMTNVIAFAFWNLL [YLR018C/POM34] | 1.81 ± 0.069 | 2.13 ± 0.058 | 1.74 ± 0.16 | 1.58 ± 0.027 |

| Sequence | protein stability index (doa10∆) | protein stability index (pdr5∆) | protein stability index (san1∆) | protein stability index (ubr1∆) |
| --- | --- | --- | --- | --- |
| NFLIKLSELSPGIMLRQ [YCS4] | 2.77 ± 0.093 | 2.98 ± 0.1 | 3.1 ± 0.094 | 2.95 ± 0.093 |
| NGFMESAIVNEDGLLEG [SOH1] | – | – | 2.86 ± 0.23 | – |
| RRVNQAIALLTIGAREA [RPS5] | 3.21 ± 0.21 | 2.72 ± 0.21 | 2.6 ± 0.24 | 3.36 ± 0.22 |
| KLRSELGYKDTSVIQDL [BRR2] | 2.74 ± 0.13 | 2.22 ± 0.083 | 2.69 ± 0.072 | 2.96 ± 0.083 |
| GTLEGHNGWVTSLATSA [ASC1] | 2.61 ± 0.063 | 1.87 ± 0.069 | 1.74 ± 0.15 | 1.67 ± 0.066 |
| KDLEIRKLEISSRFKHR [GAL11] | 2.87 ± 0.099 | 2.76 ± 0.081 | 3.16 ± 0.13 | 2.81 ± 0.053 |
| FQQQQQQQQQQQQPQPQ [PGD1] | 2.21 ± 0.11 | 2.7 ± 0.11 | 2.46 ± 0.2 | 3.05 ± 0.21 |
| NADLDVKDELMFSPLVD [RPO21] | 3.17 ± 0.047 | 3.08 ± 0.04 | 3.15 ± 0.041 | 3.31 ± 0.034 |
| PQQPMVKTKTIELIDYD [RET1] | 2.89 ± 0.14 | 3.18 ± 0.2 | 2.94 ± 0.075 | 2.97 ± 0.058 |
| MSGSLKSLDKKIAKRRQ [POP3] | 3.19 ± 0.24 | 2.98 ± 0.21 | – | 3.5 ± 0.2 |
| SFVKETKLHSGDYGEEE [SRB8] | 3.61 ± 0.23 | 3.22 ± 0.13 | – | 3.44 ± 0.1 |
| DEVNDRSDISDSEGGLF [PCI8] | 3.33 ± 0.28 | 3.08 ± 0.16 | 3.46 ± 0.072 | 3.06 ± 0.12 |
| LNSLKDERSQGEKNFTS [SMC4] | 3.41 ± 0.12 | 3.3 ± 0.25 | 3.05 ± 0.087 | 3.5 ± 0.11 |
| STLTLSDSEDSDAKEQH [ESC2] | – | – | – | 1.06 ± 0.13 |
| RLKFGHRLIATHTNLER [SNF2] | 2.41 ± 0.064 | 2.04 ± 0.054 | 2.29 ± 0.067 | 2.5 ± 0.045 |
| LKVTKKHGAKKVAKRTK [RPL27A] | 3.37 ± 0.13 | 3.54 ± 0.17 | 3.39 ± 0.11 | 3.18 ± 0.13 |
| GMVKLNEYPVADAVTKD [REC8] | – | 2.87 ± 0.2 | 3.28 ± 0.043 | 3.36 ± 0.052 |
| SGQFYFRNPTPLLSNYA [RGR1] | 1.36 ± 0.059 | 1.54 ± 0.045 | 1.8 ± 0.081 | 1.89 ± 0.044 |
| GDHSSVPVALKGQGPFT [YMR129W/POM152] | 1.87 ± 0.25 | – | – | 1.83 ± 0.2 |
| GVGKRKVWLDPNETSEI [RPL19A] | 3.13 ± 0.23 | 3.69 ± 0.24 | – | 3.04 ± 0.29 |
